{"source": "patent EP1870467A1", "about": "(UNIVERSITY COLLEGE LONDON, dated 2007)", "proteins": {"B1": {"name": "full length MEPE (phosphatonin) expressed in an insect cell line and excreted into the medium (ligand)", "chain": "PTFQPQTEKTKQSCVEEQRQEEKNKDNIGFHHLGKRINQELSSKENIVQERKKDLSLSEASENKGSSKSQNYFTNRQRLNKEYSISNKENTHNGLRMSIYPKSTGNKGFEDGDDAISKLHDQEEYGAALIRNNMQHIMGPVTAIKLLGEENKENTPRNVLNIIPASMNYAKAHSKDKKKPQRDSQAQKSPVKSKSTHRIQHNIDYLKHLSKVKKIPSDFEGSGYTDLQERGDNDISPFSGDGQPFKDIPGKGEATGPDLEGKDIQTGFAGPSEAESTHLDTKKPGYNEIPEREENGGNTIGTRDETAKEADAVDVSLVEGSNDIMGSTNFKELPGREGNRVDAGSQNAHQGKVEFHYPPAPSKEKRKEGSSDAAESTNYNEIPKNGKGSTRKGVDHSNRNQATLNEKQRFPSKGKSQGLPIPSRGLDNEIKNEMDSFNGPSHENIITHGRKYHYVPHRQNNSTRNKGMPQGKGSWGRQPHSNRRFSSRRRDDSSESSDSGSSSESDGD", "notes": "Secreted into insect cell medium; also called full length phosphatonin; Bac-1"}}, "target": "the molecule itself", "experiment": "western blot, band at about 120kD read as a homodimer"}
{"protein": "B1", "values": [{"measurement": "binding result", "value": "binds"}]}
